# Reference: article PMC6150197, “NeoBOMB1, a GRPR-Antagonist for Breast Cancer Theragnostics: First Results of a Preclinical Study with [^67Ga]NeoBOMB1 in T-47D Cells and Tumor-Bearing Mice” (Molecules : A Journal of Synthetic Chemistry and Natural …, 2017)
# Experiments:
# [1] = in vivo; conditions: female, SCID, mouse, iv, total radioactivity, Biodistribution, mean ± sd, n = 4; for tissue uptake at 4 h: 4 h pi; for tissue uptake at 24 h: 24 h pi; for tissue uptake at 1 h: 1 h pi
# Method: (§1) Female SCID mice (15 ± 3 g, six weeks of age animals at the day of arrival, NCSR “Demokritos” Animal House Facility) were acclimatized under aseptic conditions and treated with estrogens (receiving 4 mg/L β-estradiol, Sigma-Aldrich, St. Louis, MO, USA, in their drinking water,) for a week prior to inoculation. A ≈ 150 μL bolus containing a suspension of ≈1.2 × 10^7 freshly harvested human T-47D cells suspended in Matrigel (Corning Life Sciences, Inc., Bedford, MA, USA) was subcutaneously injected in their flanks. The animals were kept under estrogen treatment for additional 8 weeks till they developed well-palpable tumors (100–200 mg) at the inoculation sites.
# (§2) On the day of the experiment animals were allowed access to water, but not to food. Animals in 3 groups of 4 received a 100 μL bolus of [^67Ga]NeoBOMB1 (37 kBq, corresponding to 10 pmol, or 200 pmol total peptide or 40 nmol for in vivo GRPR-blockade for each of the 3 groups) was injected in the tail vein; animals were euthanized at 4 h pi and dissected. Samples of blood, tumors and organs of interest were collected, weighed and measured for radioactivity in the gamma counter. Intestines and stomach were not emptied of their contents. In another experimental setting, mice in 3 groups of 4 received a 100 μL bolus of [^67Ga]NeoBOMB1 (37 kBq, 200 pmol); they were euthanized at 1 h, 4 h and 24 h pi and biodistribution was conducted as described above. Statistical analysis was conducted using the unpaired two-tailed Student’s t-test; values p < 0.05 were considered statistically significant.
# [2] = tested on: T-47D Xenograft-Bearing SCID Mice; assay: in vivo; conditions: T-47D tumor, 4 h pi, mean ± sd, n = 4
# Method: as §1, §2
# [3] = liver, 200 pmol, 200 pmol peptide (0.185 MBq/nmol) iv, Table 2 time study
# [4] = lungs, 200 pmol, 200 pmol peptide (0.185 MBq/nmol) iv, Table 2 time study
# [5] = muscle, 200 pmol, 200 pmol peptide (0.185 MBq/nmol) iv, Table 2 time study
# [6] = pancreas, 200 pmol, 200 pmol peptide (0.185 MBq/nmol) iv, Table 2 time study
# [7] = spleen, 200 pmol, 200 pmol peptide (0.185 MBq/nmol) iv, Table 2 time study
# [8] = stomach (not emptied), 200 pmol, Stomach, 200 pmol peptide (0.185 MBq/nmol) iv, Table 2 time study
compound,measurement,setting,value
"CC(C)CC(CC(C)C)NC(=O)[C@H](Cc1cnc[nH]1)NC(=O)CNC(=O)[C@@H](NC(=O)[C@H](C)NC(=O)[C@H](Cc1c[nH]c2ccccc12)NC(=O)[C@H](CCC(N)=O)NC(=O)[C@@H](Cc1ccccc1)NC(=O)COCC(=O)Nc1ccc(CNC(=O)CN2CCN(CC(=O)O)CCN(CC(=O)O)CCN(CC(=O)O)CC2)cc1)C(C)C [[^67Ga]NeoBOMB1, metal not drawn]",tissue uptake at 4 h,[1]; [3],7.05 ± 0.31 %ID/g
same,tissue uptake at 24 h,[1]; [3],2.26 ± 0.18 %ID/g
same,tissue uptake at 4 h,"[1]; liver, 40 nmol, 40 nmol NeoBOMB1, in vivo GRPR-blockade",9.67 ± 0.75 %ID/g
same,tissue uptake at 4 h,"[1]; lungs, 10 pmol, 10 pmol peptide (3.7 MBq/nmol) iv",0.5 ± 0.06 %ID/g
same,tissue uptake at 1 h,[1]; [4],2.88 ± 0.2 %ID/g
same,tissue uptake at 4 h,"[1]; lungs, 200 pmol, 200 pmol peptide (0.185 MBq/nmol) iv, Table 1 dose study",0.43 ± 0.06 %ID/g
same,tissue uptake at 4 h,[1]; [4],0.47 ± 0.04 %ID/g
same,tissue uptake at 24 h,[1]; [4],0.15 ± 0.02 %ID/g
same,tissue uptake at 4 h,"[1]; lungs, 40 nmol, 40 nmol NeoBOMB1, in vivo GRPR-blockade",0.42 ± 0.02 %ID/g
same,tissue uptake at 4 h,"[1]; muscle, 10 pmol, 10 pmol peptide (3.7 MBq/nmol) iv",0.1 ± 0.03 %ID/g
same,tissue uptake at 1 h,[1]; [5],0.58 ± 0.11 %ID/g
same,tissue uptake at 4 h,"[1]; muscle, 200 pmol, 200 pmol peptide (0.185 MBq/nmol) iv, Table 1 dose study",0.12 ± 0.01 %ID/g
same,tissue uptake at 4 h,[1]; [5],0.17 %ID/g
same,tissue uptake at 24 h,[1]; [5],0.13 ± 0.01 %ID/g
same,tissue uptake at 4 h,"[1]; muscle, 40 nmol, 40 nmol NeoBOMB1, in vivo GRPR-blockade",0.16 ± 0.06 %ID/g
same,tissue uptake at 4 h,"[1]; pancreas, 10 pmol, 10 pmol peptide (3.7 MBq/nmol) iv",206 ± 17.4 %ID/g
same,tissue uptake at 1 h,[1]; [6],32.5 ± 0.78 %ID/g
same,tissue uptake at 4 h,"[1]; pancreas, 200 pmol, 200 pmol peptide (0.185 MBq/nmol) iv, Table 1 dose study",42.5 ± 1.31 %ID/g
same,tissue uptake at 4 h,[1]; [6],36.9 ± 3.58 %ID/g
same,tissue uptake at 24 h,[1]; [6],21.3 ± 2.77 %ID/g
same,tissue uptake at 4 h,"[1]; pancreas, 40 nmol, 40 nmol NeoBOMB1, in vivo GRPR-blockade",1.17 ± 0.11 %ID/g
same,tissue uptake at 4 h,"[1]; spleen, 10 pmol, 10 pmol peptide (3.7 MBq/nmol) iv",1.02 ± 0.09 %ID/g
same,tissue uptake at 1 h,[1]; [7],1.71 ± 0.5 %ID/g
same,tissue uptake at 4 h,"[1]; spleen, 200 pmol, 200 pmol peptide (0.185 MBq/nmol) iv, Table 1 dose study",0.7 ± 0.09 %ID/g
same,tissue uptake at 4 h,[1]; [7],0.89 ± 0.12 %ID/g
same,tissue uptake at 24 h,[1]; [7],0.46 ± 0.08 %ID/g
same,tissue uptake at 4 h,"[1]; spleen, 40 nmol, 40 nmol NeoBOMB1, in vivo GRPR-blockade",0.79 ± 0.11 %ID/g
same,tissue uptake at 1 h,[1]; [8],5.89 ± 1.02 %ID/g
same,tissue uptake at 4 h,[1]; [8],2.66 ± 0.16 %ID/g
same,tissue uptake at 24 h,[1]; [8],2.07 ± 0.43 %ID/g
same,tissue uptake at 4 h,"[1]; stomach, 10 pmol, Stomach (not emptied), 10 pmol peptide (3.7 MBq/nmol) iv",4.36 ± 0.56 %ID/g
same,tissue uptake at 4 h,"[1]; stomach, 200 pmol, Stomach (not emptied), 200 pmol peptide (0.185 MBq/nmol) iv, Table 1 dose study",2.38 ± 0.13 %ID/g
same,tissue uptake at 4 h,"[1]; stomach, 40 nmol, Stomach (not emptied), 40 nmol NeoBOMB1, in vivo GRPR-blockade",0.42 ± 0.1 %ID/g
same,tissue uptake at 4 h,"[1]; whole blood, 10 pmol, Blood, 10 pmol peptide (3.7 MBq/nmol) iv",0.53 ± 0.04 %ID/g
same,tissue uptake at 4 h,"[1]; whole blood, 200 pmol, Blood, 200 pmol peptide (0.185 MBq/nmol) iv, Table 1 dose study",0.42 ± 0.06 %ID/g
same,tissue uptake at 4 h,"[1]; whole blood, 40 nmol, Blood, 40 nmol NeoBOMB1, in vivo GRPR-blockade",0.46 ± 0.03 %ID/g
same,"Biodistribution, Tumor","[2]; 200 pmol peptide (0.185 MBq/nmol) iv, Table 2 time study",8.68 ± 2.9 % ID/g
same,"Biodistribution, Tumor","[2]; 40 nmol NeoBOMB1, in vivo GRPR-blockade, iv",0.64 ± 0.10 % ID/g
